Source: patent US8551951B2, “Pharmaceutical preparations and methods for inhibiting tumors” (Aenorasis SA Pharmaceuticals and Medical Devices, priority 2000, dated 2013)
“And” between values parts separate entries of the source, which are not always exact repeats. Equal values may be shown once.

Tests used:
[1] = test system: follicle-stimulating hormone (FSH); details: in-vitro and in-vivo in adult male rats; cited from earlier work
PC-3 cells [2] = test: [^3H]-Thymidine uptake assay; format: cell-based, human; details: for ^3[H]-Thymidine Uptake (% of control): 72 hours
Procedure: The in vitro growth inhibition effect of rHuPSP94 was assessed using [^3H]-Thymidine uptake assay. [^3H]-Thymidine uptake assay involves [^3H]-Thymidine incorporation into cellular DNA of actively proliferating cells. It measures the proliferative index of the cells versus the MTS assay, which quantifies the number of lived cells following treatment. Cells were seeded in Costar 96 well cell culture flat bottom plates in RPMI supplemented media containing 50 μg/ml of bovine serum albumin (BSA) and 0.1 μM FeSO4. PC-3 cells were exposed to various concentrations of rHuPSP94 for 72 hours and during the final 16 hours of incubation cells were pulsed with 1 μCi of [^3H]-Thymidine. The radioactivity in each well of the plate is counted by a beta-counter and is expressed as total counts per minutes (cpm). Results of in vitro effect of rHuPSP94 on PC-3 cells using the ^3[H]-Thymidine uptake assay are summarized in Table 3 and are expressed as percentage of radioactivity measured for treated-cells relative to the radioactivity measured for non-treated cells (for which [^3H]-thymidine uptake value was set at 100%).
[^3H]-Thymidine uptake assay involves [^3H]-Thymidine incorporation into cellular DNA of actively proliferating cells. [^3H]-Thymidine uptake assay measures the proliferative index of the cells versus the MTS assay, which quantifies the number of lived cells following treatment. The anti-proliferative effects of PCK3145 and two other synthetic polypeptides derived from the amino and carboxy terminus ends of PSP94 (SEQ ID NO: 4 and NO: 6, respectively) as well as the decapeptide (SEQ ID NO: 3) previously shown to mimic the biological action of native PSP94 were assessed in [H3]-Thymidine uptake assay on PC-3 cells. Two separate experiments were conducted with GMP-grade PCK3145.

tumor cells = details: exogenous PSP94, in vivo and in vitro; cited from earlier work
PC-3 cells [3] = test: DNA fragmentation assay (DNA ladder, apoptosis); format: cell-based, human
Procedure: Cell apoptosis result in DNA fragmentation can be evaluated by the presence of a DNA ladder visualized when DNA is run on a 1.2% agarose gel. DNA ladder assay (apoptosis assay) was performed following exposure of PC-3 to various concentrations of the polypeptides for 72 hours. The polypeptides that were used in this particular experiment are polypeptide 7-21 (SEQ ID NO: 4), polypeptide PCK3145 (SEQ ID NO: 5) and polypeptide 76-94 (SEQ ID NO: 6). […] This effect was especially evident following treatment with PCK3145 (SEQ ID NO: 5), which is illustrated by FIG. 7. Lane 1 of the gel illustrated in FIG. 7 represents a lambda HindIII digest standard.
Apoptosis of PC-3 cells, following a 72 hours exposure to PCK3145 at 500 μg/ml concentration, was evaluated in supplemented media by DNA fragmentation assay. Doxorubicin was used as a reference positive control. Untreated cells and PCK3145-treated cells were harvested and the DNA was isolated. Isolated DNA was run on a 1.2% agarose gel containing Ethidium Bromide (EtBr). […] Lane 1 of the gel illustrated in FIG. 25 represents the DNA marker (100 base pair DNA ladder). Lane 2 of the gel illustrated in FIG. 25 represents a control of untreated PC-3 cells.

[4] = test system: human prostate cancer cells PC-3; test: MTS assay, growth inhibitory effect on PC-3 cells; format: cell-based; details: for % Viability (control = 100%): 72 hours
Excerpt: Cell proliferation was monitored on PC-3 cells using the MTS/PMS (phenazine methosulfate) kit (Promega), which primarily measures mitochondrial activity of live cells. The basic principle of this method involves the fact that the mitochondrial enzymes of the live cells metabolize the MTS/PMS dyes forming a brown colored precipitate which can be measured as optical density (OD) by absorption at 490 nm in a spectrophotometer. Therefore, the OD values are proportional to the number of living cells. In addition, monitoring of cell morphology was also performed. Cell morphology would be indicative of their health status. For example, viable cells would appear adherent and spread out whereas dead cells would be in suspension in the media and would appear granular and round.
PC-3 cells (ATCC, Lot AT06) used in these experiments were at a passage number lower or equal to 70 (n≧70). Cells were seeded in Costar 96 well cell culture flat bottom plates in RPMI supplemented media containing 50 μg/ml of bovine serum albumin (BSA) and 0.1 μM FeSO4. Peptide was diluted in the same media. Cells were continuously exposed to the polypeptides of the present invention for 72 hours without changing media. Native PSP94 or rHuPSP94 concentrated two fold were directly added to wells and diluted to 1× in order to minimize cell manipulation and avoid detachment.
Native PSP94, rHuPSP94, polypeptide 22-36 and PB111 polypeptide (scrambled polypeptide) were also included in this experiment as controls. Cell proliferation assay was performed on either PC-3 cells or normal fibroblasts (used here as control) using the MTS/PMS kit (Promega). Four thousand cells (FIGS. 9 and 10) or three thousand (FIG. 11) cells were seeded in Costar 96 well cell culture flat bottom plates in RPMI supplemented media containing 50 μg/ml of bovine serum albumin (BSA) and 0.1 μM FeSO4. In addition, monitoring of cell morphology was also performed.
This assay measures the mitochondrial activity of the live cells. The basic principle of this method involves the fact that the mitochondrial enzymes of the live cells metabolize the MTS/PMS dyes forming a brown colored precipitate which can be measured as optical density (OD) by absorption at 490 nm in a spectrophotometer. Therefore, the OD values are proportional to the number of living cells.
In addition, a visual observation of the cells was also done to check the cell morphology, which could also be indicative of cell growth. The following conditions for MTS assay were used: PC-3 (ATCC, Lot AT06), passage number n≧70, cell line adapted to grow in serum-free OPTI-MEM and in RPMI supplemented with BSA (50 μg/ml) and Ferrous Sulfate (0.1 μM), continuous exposure for up to 72 hours without changing media (i.e., adding PCK3145 at 2× concentration directly to wells and diluting it 1:2 to 1× to minimize cell manipulation and avoid detachment).

Mat Ly Lu (MLL) tumor [5] = test: Study MLL-2, Mat Ly Lu tumor implanted in SCID mice; format: in vivo; details: 1 μg/kg/day s.c.; p=0.010
Procedure: (§1) Studies MLL-1 and MLL-2 were performed as follows; on day 0, male Copenhagen rats were injected subcutaneously with 5×10^5 Mat LyLu cells per rat. These cells were derived from cultures of Mat LyLu cell line grown in RPMI media containing 10% (v/v) of fetal calf serum in logarithmic phase of growth. Cells were harvested from the culture flasks by trypsinization, were centrifuged at 1200 rotation per minute (rpm) and washed three timed with Hanks balanced salt solution (HBSS). Following washing, cells were counted and adjusted to a concentration of 5×10^6 cells/ml in HBSS. A 0.1 ml volume of tumor cell inoculum containing 5×10^5 cells was administered subcutaneously into the flank region of each rat. Three days after tumor cell implantation (i.e., inoculation), animals were treated daily by a subcutaneous injection of the desired polypeptide until day 13.
Experiments illustrated in study MLL-2 show the anti-tumor efficacy validation of rHuPSP94 against Mat Ly Lu (MLL) tumor implanted in severe combined immunodeficiency (SCID) mice (Protocol based on S. Garde et al.; The Prostate, 22: 225-233, 1993).
For study MLL-2 (FIG. 13), tumor-implanted Scid mice were separated in different groups each receiving various amounts of rHuPSP94 or control reagents. The different groups used in these experiments are illustrated below. Each group contained 8 mice.

[6] = test system: PC-3 human prostate tumor; test: PC-3 human prostate tumor in nude mice, subcutaneous treatment for 14 days (Examples 10 and 11); format: in vivo, Nude mouse; details: 1 μg/kg body weight per day s.c.
Procedure: PC-3 human prostate tumor was obtained from ATCC (ATCC 1435). PC-3 cells were grown in RPMI media containing 10% (v/v) of fetal calf serum and were harvested in the logarithmic phase of growth by trypsinization. Cells were centrifuged at 1200 rotation per minute (rpm) and washed three timed with Hanks balanced salt solution (HBSS). Following washing, cells were counted and adjusted to a concentration of 1×10^7 cells/ml in HBSS. A 0.1 ml volume of tumor cell inoculum containing 1×10^6 cells was administered subcutaneously into the two opposite flank region of each Nude mouse (Nu/Nu, BALE/c background). Tumor growth was monitored for approximately 18 days. Once tumor growth has been established (volume of tumor reached a volume of 50 mm^3) treatment with rHuPSP94 (SEQ ID NO: 2) was initiated and was performed once a day for 14 days by the subcutaneous route. Based on the assigned treatment groups illustrated in table 4.
PC-3 human prostate tumor (ATCC 1435) obtained from ATCC was implanted bilaterally into nude mice and tumor growth was monitored for approximately 18 days. PC-3 cells were injected once subcutaneously into each flank of the mice. Once tumor growth has been established (i.e., volume of tumor reached 0.25 to 0.50 cm^3) the treatment with decapeptide (SEQ ID NO: 3), native PSP94 (SEQ ID NO: 1) and control scrambled polypeptide PB111 was initiated and was performed once a day for 14 days by the subcutaneous route based on the treatment groups (randomly assigned) illustrated in table 5.

Mat Ly Lu (MLL) tumor [7] = test: Study MLL-1, Mat LyLu tumor implanted in nude mice; format: in vivo; details: 1 μg/kg/day s.c.; p=0.042
Procedure: as §1
Experiments illustrated in FIG. 12 show the anti-tumor efficacy validation of rHuPSP94 against Mat LyLu (MLL) tumor implanted in nude mice (Protocol based on S. Garde et al.; The Prostate, 22: 225-233, 1993).
For study MLL-1 (FIG. 12), tumor-implanted nude mice were separated in different groups, each receiving various amount of rHuPSP94 or control reagents. The different groups used in these experiments are illustrated below. Each group contained 8 mice.

B1: native PSP94: Prostate Secretory Protein of 94 amino acids, native human seminal plasma protein, SEQ ID NO: 1 (protein)
chain: SCYFIPNEGVPGDSTRKCMDLKGNKHPINSEWQTDNCETCTCYETEISCCTLVSTPVGYDKDNCQRIFKKEDCKYIVVEKKDPKKTCSVSEWII
- secretion of circulating FSH [1]: suppress secretion of
- ^3[H]-Thymidine Uptake (% of control) (PC-3 cells [2]; 5 μg/ml): 97 % of control
- ^3[H]-Thymidine Uptake (% of control) (PC-3 cells [2]; 10 μg/ml): 98 % of control
- ^3[H]-Thymidine Uptake (% of control) (PC-3 cells [2]; 20 μg/ml): 100 % of control
- ^3[H]-Thymidine Uptake (% of control) (PC-3 cells [2]; 40 μg/ml): 98 % of control
- ^3[H]-Thymidine Uptake (% of control) (PC-3 cells [2]; 80 μg/ml): 77 % of control
- reduction in the [H3]-Thymidine uptake (PC-3 cells [2]; 72 hours exposure (FIG. 24)): ~50%
- effect on tumor cell growth (tumor cells): inhibitory effect
- DNA laddering effect (FIG. 7 lane 4) (PC-3 cells [3]; 20 μg): DNA laddering effect
- DNA laddering effect (FIG. 7 lane 3) (PC-3 cells [3]; 40 μg): DNA laddering effect

B2: rHuPSP94: recombinant human PSP94 expressed in yeast (Pichia pastoris), non-glycosylated, 10 cysteine residues, SEQ ID NO: 2 (protein)
chain: EAEAYVEFSCYFIPNEGVPGDSTRKCMDLKGNKHPINSEWQTDNCETCTCYETEISCCTLVSTPVGYDKDNCQRIFKKEDCKYIVVEKKDPKKTCSVSEWII
modifications: recombinant human PSP94 (rHuPSP94) produced from yeast
- % Viability (control = 100%) ([4]; 5 μg/ml): 98% and 92% and 89%
- % Viability (control = 100%) ([4]; 10 μg/ml): 84% and 95% and 69%
- % Viability (control = 100%) ([4]; 20 μg/ml): 78% and 80% and 79%
- % Viability (control = 100%) ([4]; 40 μg/ml): 100% and 70% and 71% and 68% and 72% and 63% and 95%
- % Viability (control = 100%) ([4]; 60 μg/ml): 98% and 78% and 63% and 85% and 52%
- reduction in cell numbers (i.e., viability) ([4]; 80 μg/ml): 37% and 35%
- % Viability (control = 100%) ([4]; 80 μg/ml): 90% and 55% and 59% and 58% and 63% and 78% and 62%
- reduction in cell numbers (i.e., viability) ([4]; 120 μg/ml): 57%
- % Viability (control = 100%) ([4]; 120 μg/ml): 52% and 43% and 68% and 60%
- tumor weight reduction (Mat Ly Lu (MLL) tumor [5]): 65%
- tumor growth (tumor volume) [6]: tumor growth reduction
- tumor growth reduction compared with Doxorubicin (5 mg/kg/day) [6]: reduction was similar to that observed for Doxorubicin
- ^3[H]-Thymidine Uptake (% of control) (PC-3 cells [2]; 5 μg/ml): 94 % of control
- ^3[H]-Thymidine Uptake (% of control) (PC-3 cells [2]; 10 μg/ml): 101 % of control
- ^3[H]-Thymidine Uptake (% of control) (PC-3 cells [2]; 20 μg/ml): 98 % of control
- ^3[H]-Thymidine Uptake (% of control) (PC-3 cells [2]; 40 μg/ml): 79 % of control
- reduction in the percentage of cells incorporating [^3H]-thymidine (PC-3 cells [2]; 80 μg/ml for 72 hrs, compared to non-treated control): 65%
- ^3[H]-Thymidine Uptake (% of control) (PC-3 cells [2]; 80 μg/ml): 35 % of control
- tumor weight reduction (Mat Ly Lu (MLL) tumor [7]): 26%
